{"source": "patent US20240050559A1", "about": "(ICOSAVAX, published 2024)", "binders": {"B1": {"name": "compB-01 (I53-50B sequence) (designed binder)", "chain": "MNQHSHKDHETVRIAVVRARWHAEIVDACVSAFEAAMRDIGGDRFAVDVFDVPGAYEIPLHARTLAETGRYGAVLGTAFVVNGGIYRHEFVASAVINGMMNVQLNTGVPVLSAVLTPHNYDKSKAHTLLFLALFAVKGMEAARACVEILAAREKIAA", "notes": "Designed pentameric component B of the two-component I53-50 icosahedral particle; also called I53-50B compB-01; bompB-01"}}, "target": "T1, compA-01", "T1 chain": "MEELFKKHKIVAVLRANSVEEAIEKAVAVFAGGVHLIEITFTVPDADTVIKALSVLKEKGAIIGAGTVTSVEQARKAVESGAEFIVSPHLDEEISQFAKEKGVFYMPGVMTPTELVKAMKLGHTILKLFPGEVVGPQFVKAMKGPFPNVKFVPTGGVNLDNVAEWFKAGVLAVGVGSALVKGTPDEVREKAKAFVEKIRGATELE", "test": "particle assembly of purified compB-01 with compA-01", "data": [{"binder": "B1", "values": [{"measurement": "binding result", "value": "binds"}]}]}
